Assay results as given in patent US20240151714A1 (AJOU UNIVERSITY INDUSTRY ACADEMIC COOPERATION FOUNDATION, published 2024).

How the values were obtained:
[1] = target: thrombin (ab62452; Abcam) (human, UniProt P00734 328-622); experiment: PPR-based homogeneous assay, specificity test (trastuzumab-DNA1 with pertuzumab-DNA2)
Description: (§1) In a homogeneous assay to detect the target substance, samples were mixed with four conjugates (TEVP-first DNA′, BLZ-second DNA′, first binder-first DNA agent, second binder-second DNA) and […] CENTA™ (EMD Millipore, USA) in a reaction buffer (137 mM NaCl, 2.7 mM KCl, 10 mM Na₂HPO₄, 2 mM KH₂PO₄, 40 mM MgCl₂, 10 mM DTT, 0.5% (w/v) BSA, and pH 7.4). Hydrolysis of CENTA™ by β-lactamase was monitored by measuring absorbance (A₄₀₅) at 405 nm using a plate reader (synergy HT multi-detection reader; BioTek Instruments, USA) at 37° C. for 1 hour. The absorbance signal (ΔAbs=A₄₀₅ at 60 min−A₄₀₅ at 1 min) was plotted as a function of the concentration of the target substance. All experiments were performed at least three times and the limit of detection (LOD) was calculated as the sum of the mean ΔAbs of the blank and three times the standard deviation. In the competitive immunoassay for small molecule detection, an antibody against the target was further contained in the reaction solution. The following proteins were used as targets: HER2 (extracellular domain; 10004-H₀₈H; Sino Biological, China), cTnI protein (ab207624; Abcam, United Kingdom), thrombin (ab62452; Abcam), digoxigenin (D9026; Sigma, USA), digoxigenin polyclonal antibody (PA1-85378; Thermo Fisher Scientific, USA) and hCG monoclonal antibody (MA5-14680; Thermo Fisher Scientific).

[2] = target: T1, cTnI protein (ab207624; Abcam) (UniProt P19429 1-210, limits assumed); experiment: as above
T1 construct: also called cardiac troponin I
T1 sequence (P19429 whole entry): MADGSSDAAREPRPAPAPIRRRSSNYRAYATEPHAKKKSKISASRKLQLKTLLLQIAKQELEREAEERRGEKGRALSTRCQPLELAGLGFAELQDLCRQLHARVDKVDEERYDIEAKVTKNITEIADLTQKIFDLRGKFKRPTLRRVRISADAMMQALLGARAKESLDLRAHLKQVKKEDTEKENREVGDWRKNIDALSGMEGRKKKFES
Description: as §1

binding result [1]: no binding (tested: 10 nM)
binding result [2]: no binding (tested: 10 nM)
B1: pertuzumab-second DNA conjugate (antibody, V domains shown)
VH: EVQLVESGGGLVQPGGSLRLSCAASGFTFTDYTMDWVRQAPGKGLEWVADVNPNSGGSIYNQRFKGRFTLSVDRSKNTLYLQMNSLRAEDTAVYYCARNLGPSFYFDYWGQGTLVTVSS
VL: DIQMTQSPSSLSASVGDRVTITCKASQDVSIGVAWYQQKPGKAPKLLIYSASYRYTGVPSRFSGSGSGTDFTLTISSLQPEDFATYYCQQYYIYPYTFGQGTKVEIKR
modifications: amine groups conjugated to amine-modified second DNA (SEQ ID NO: 2) via a bis-NHS ester linker; heterogeneous product, sites not stated
notes: IgG made in HEK293F cells and conjugated to ssDNA; also called pertuzumab-DNA2; P-D2
